Reference: paper PMC11969024 (2025)

B1: peptide HD2 (from tick evasin EVA4) / CXCL11 (biotinylated, synthetic) (parent complex)
chain 1: EEDDYTAYAPLTCYFT
chain 2: FPMFKRGRCLCIGPGVKAVKVADIEKASIMYPSNNCDKIEVIITLKENKGQRCLNPKSKQARLIIKKVERKNF
B2: peptide HD2 (from tick evasin EVA4) / CCL4 (biotinylated, synthetic) (parent complex)
chain 1: EEDDYTAYAPLTCYFT
chain 2: APMGSDPPTACCFSYTARKLPRNFVVDYYETSSLCSQPAVVFQTKRSKQVCADPSESWVQEYVYDLELN

Variants of: B1

| Variant | enrichment |
| --- | --- |
| chain 1 A7P | 0.432 log2 (difference from the parental peptide) |
| chain 1 A7S | 0.213 log2 (difference from the parental peptide) |
| chain 1 A7F | 1.43 log2 (difference from the parental peptide) |
| chain 1 A7D | 2.88 log2 (difference from the parental peptide) |
| chain 1 A7M | 1.69 log2 (difference from the parental peptide) |
| chain 1 A7N | 1.13 log2 (difference from the parental peptide) |
| chain 1 A7H | -1.06 log2 (difference from the parental peptide) |
| chain 1 A7R | -1.89 log2 (difference from the parental peptide) |
| chain 1 A7Q | 3.76 log2 (difference from the parental peptide) |
| chain 1 A7E | -0.399 log2 (difference from the parental peptide) |
| chain 1 A7L | 0.413 log2 (difference from the parental peptide) |
| chain 1 A7G | -3.03 log2 (difference from the parental peptide) |
| chain 1 F15A | -3.02 log2 (difference from the parental peptide) |
| chain 1 F15M | -0.451 log2 (difference from the parental peptide) |
| chain 1 F15L | -2.87 log2 (difference from the parental peptide) |
| chain 1 F15C | 0.343 log2 (difference from the parental peptide) |
| chain 1 F15E | -6.06 log2 (difference from the parental peptide) |
| chain 1 F15Y | 0.592 log2 (difference from the parental peptide) |
| chain 1 F15T | -0.0704 log2 (difference from the parental peptide) |
| chain 1 F15R | -4.18 log2 (difference from the parental peptide) |
| chain 1 F15G | -4.79 log2 (difference from the parental peptide) |
| chain 1 F15S | -1.86 log2 (difference from the parental peptide) |

| Variant | enrichment |
| --- | --- |
| chain 1 C13E | -5.07 log2 (difference from the parental peptide) |
| chain 1 C13F | -5.76 log2 (difference from the parental peptide) |
| chain 1 C13A | -5.18 log2 (difference from the parental peptide) |
| chain 1 C13M | -6.65 log2 (difference from the parental peptide) |
| chain 1 C13V | -1.39 log2 (difference from the parental peptide) |
| chain 1 C13Q | -4.93 log2 (difference from the parental peptide) |
| chain 1 Y14C | -3.13 log2 (difference from the parental peptide) |
| chain 1 Y14F | 0.796 log2 (difference from the parental peptide) |
| chain 1 Y14T | -5.08 log2 (difference from the parental peptide) |
| chain 1 E1L | -0.107 log2 (difference from the parental peptide) |
| chain 1 E1N | -4.13 log2 (difference from the parental peptide) |
| chain 1 E1P | -4.68 log2 (difference from the parental peptide) |
| chain 1 E1I | 0.804 log2 (difference from the parental peptide) |
| chain 1 E1D | 1.33 log2 (difference from the parental peptide) |
| chain 1 E1Y | 1.69 log2 (difference from the parental peptide) |
| chain 1 E1A | 0.823 log2 (difference from the parental peptide) |
| chain 1 T12E | -0.922 log2 (difference from the parental peptide) |
| chain 1 T12D | -5.79 log2 (difference from the parental peptide) |
| chain 1 T12A | -4.34 log2 (difference from the parental peptide) |
| chain 1 T12V | 1.82 log2 (difference from the parental peptide) |
| chain 1 T12W | 0.223 log2 (difference from the parental peptide) |
| chain 1 T12M | 0.317 log2 (difference from the parental peptide) |

| Variant | enrichment |
| --- | --- |
| chain 1 T12F | -2.38 log2 (difference from the parental peptide) |
| chain 1 T12I | 0.0621 log2 (difference from the parental peptide) |
| chain 1 T12S | -1.85 log2 (difference from the parental peptide) |
| chain 1 T12Q | -3.76 log2 (difference from the parental peptide) |
| chain 1 T12H | -2.7 log2 (difference from the parental peptide) |
| chain 1 E2H | -4.78 log2 (difference from the parental peptide) |
| chain 1 E2S | -2.62 log2 (difference from the parental peptide) |
| chain 1 E2T | -4.37 log2 (difference from the parental peptide) |
| chain 1 E2M | 0.915 log2 (difference from the parental peptide) |
| chain 1 L11S | -0.706 log2 (difference from the parental peptide) |
| chain 1 L11M | 2.73 log2 (difference from the parental peptide) |
| chain 1 L11W | 4.79 log2 (difference from the parental peptide) |
| chain 1 L11R | -3.19 log2 (difference from the parental peptide) |
| chain 1 L11D | -5.22 log2 (difference from the parental peptide) |
| chain 1 L11C | -2.08 log2 (difference from the parental peptide) |
| chain 1 L11P | -5.24 log2 (difference from the parental peptide) |
| chain 1 L11H | 0.15 log2 (difference from the parental peptide) |
| chain 1 L11T | -1.48 log2 (difference from the parental peptide) |
| chain 1 L11A | -1.47 log2 (difference from the parental peptide) |
| chain 1 T16C | 2.71 log2 (difference from the parental peptide) |
| chain 1 T16E | 1.12 log2 (difference from the parental peptide) |
| chain 1 T16S | 0.254 log2 (difference from the parental peptide) |

| Variant | enrichment |
| --- | --- |
| chain 1 T16P | 0.438 log2 (difference from the parental peptide) |
| chain 1 T16Y | -3.28 log2 (difference from the parental peptide) |
| chain 1 T16Q | -2.38 log2 (difference from the parental peptide) |
| chain 1 T16I | 0.577 log2 (difference from the parental peptide) |
| chain 1 T16M | -0.985 log2 (difference from the parental peptide) |
| chain 1 T16V | -2.73 log2 (difference from the parental peptide) |
| chain 1 T16L | 0.663 log2 (difference from the parental peptide) |
| chain 1 Y5F | -0.5 log2 (difference from the parental peptide) |
| chain 1 Y5W | 5.39 log2 (difference from the parental peptide) |
| chain 1 Y5N | -4.84 log2 (difference from the parental peptide) |
| chain 1 Y5I | -1.31 log2 (difference from the parental peptide) |
| chain 1 D4L | -4.01 log2 (difference from the parental peptide) |
| chain 1 D4P | 0.748 log2 (difference from the parental peptide) |
| chain 1 D4I | -4.93 log2 (difference from the parental peptide) |
| chain 1 D4M | -5.76 log2 (difference from the parental peptide) |
| chain 1 D4V | -6.99 log2 (difference from the parental peptide) |
| chain 1 D4F | -5.51 log2 (difference from the parental peptide) |
| chain 1 D4W | -2.72 log2 (difference from the parental peptide) |
| chain 1 T6M | 1.9 log2 (difference from the parental peptide) |
| chain 1 T6F | 4.5 log2 (difference from the parental peptide) |
| chain 1 T6I | -0.429 log2 (difference from the parental peptide) |
| chain 1 T6Q | -2.01 log2 (difference from the parental peptide) |

| Variant | enrichment |
| --- | --- |
| chain 1 T6W | 9.7 log2 (difference from the parental peptide) |
| chain 1 T6S | 1.57 log2 (difference from the parental peptide) |
| chain 1 T6R | 0.535 log2 (difference from the parental peptide) |
| chain 1 T6Y | 3.68 log2 (difference from the parental peptide) |
| chain 1 T6K | 0.156 log2 (difference from the parental peptide) |
| chain 1 T6D | 3.67 log2 (difference from the parental peptide) |
| chain 1 T6C | -5.45 log2 (difference from the parental peptide) |
| chain 1 T6P | 1.34 log2 (difference from the parental peptide) |
| chain 1 T6A | 1.82 log2 (difference from the parental peptide) |
| chain 1 T6H | -0.342 log2 (difference from the parental peptide) |
| chain 1 T6G | 4.62 log2 (difference from the parental peptide) |
| chain 1 Y8D | -3.68 log2 (difference from the parental peptide) |
| chain 1 Y8F | 0.146 log2 (difference from the parental peptide) |
| chain 1 Y8N | 0.757 log2 (difference from the parental peptide) |
| chain 1 Y8M | -5.63 log2 (difference from the parental peptide) |
| chain 1 Y8I | -0.997 log2 (difference from the parental peptide) |
| chain 1 Y8S | -2.63 log2 (difference from the parental peptide) |
| chain 1 Y8H | -4.71 log2 (difference from the parental peptide) |
| chain 1 P10L | -1.17 log2 (difference from the parental peptide) |
| chain 1 P10D | 8.22 log2 (difference from the parental peptide) |
| chain 1 P10N | 1.47 log2 (difference from the parental peptide) |
| chain 1 P10W | 0.743 log2 (difference from the parental peptide) |

| Variant | enrichment |
| --- | --- |
| chain 1 P10S | -1.81 log2 (difference from the parental peptide) |
| chain 1 P10E | -3.45 log2 (difference from the parental peptide) |
| chain 1 P10V | -5.93 log2 (difference from the parental peptide) |
| chain 1 P10I | -0.366 log2 (difference from the parental peptide) |
| chain 1 P10M | -4.64 log2 (difference from the parental peptide) |
| chain 1 A9M | -0.281 log2 (difference from the parental peptide) |
| chain 1 A9N | -2.99 log2 (difference from the parental peptide) |
| chain 1 A9T | 1.25 log2 (difference from the parental peptide) |
| chain 1 A9E | 2.26 log2 (difference from the parental peptide) |
| chain 1 A9H | -5.35 log2 (difference from the parental peptide) |
| chain 1 A9R | -1.01 log2 (difference from the parental peptide) |
| chain 1 A9W | 5.42 log2 (difference from the parental peptide) |
| chain 1 A9L | -2.33 log2 (difference from the parental peptide) |
| chain 1 A9Q | 0.165 log2 (difference from the parental peptide) |
| chain 1 A9I | -4.81 log2 (difference from the parental peptide) |
| chain 1 D3Y | -1.43 log2 (difference from the parental peptide) |
| chain 1 D3S | -4.11 log2 (difference from the parental peptide) |
| chain 1 D3F | -3.31 log2 (difference from the parental peptide) |
| chain 1 D3T | -3.75 log2 (difference from the parental peptide) |
| chain 1 D3W | 0.263 log2 (difference from the parental peptide) |
| chain 1 D3N | -0.358 log2 (difference from the parental peptide) |

Variants of: B2

| Variant | enrichment |
| --- | --- |
| chain 1 P10W | -7.42 log2 (difference from the parental peptide) |
| chain 1 P10L | -9.07 log2 (difference from the parental peptide) |
| chain 1 D3A | -2.51 log2 (difference from the parental peptide) |
| chain 1 D3F | -2.01 log2 (difference from the parental peptide) |
| chain 1 T12A | 0.00832 log2 (difference from the parental peptide) |
| chain 1 A7N | 0.608 log2 (difference from the parental peptide) |
| chain 1 T16K | 0.843 log2 (difference from the parental peptide) |
| chain 1 T16Y | -1.43 log2 (difference from the parental peptide) |
| chain 1 E1L | -1.55 log2 (difference from the parental peptide) |
| chain 1 Y14I | -1.56 log2 (difference from the parental peptide) |
| chain 1 D4E | 0.269 log2 (difference from the parental peptide) |
| chain 1 F15G | -2.79 log2 (difference from the parental peptide) |
| chain 1 Y5L | -1.57 log2 (difference from the parental peptide) |
| chain 1 Y5D | -5.03 log2 (difference from the parental peptide) |
| chain 1 T6P | -5.36 log2 (difference from the parental peptide) |
| chain 1 C13V | -2.03 log2 (difference from the parental peptide) |
| chain 1 C13Q | -7.94 log2 (difference from the parental peptide) |
| chain 1 E2M | -2.17 log2 (difference from the parental peptide) |
| chain 1 E2N | -2.2 log2 (difference from the parental peptide) |
